Measured values as given in patent US20260116991A1 (HAINAN SIMCERE ZAIMING PHARMACEUTICAL, published 2026).
Substitutions are numbered along the chain they refer to.

B1: F4.21.16 human-murine chimeric antibody (antibody, human IgG1, kappa, V domains shown)
VH: DVQLQESGPGLVKPSQSLSLTCSVTGYSITSGYYWNWIRQFPGNKLEWMGYISYDVTVNYNPSLKNRISITRDTSKNQFFLKLNSVTTEDTATYYCATITSVASMDHWGQGTSVTVSS
VL: DILMTQTPLSLPVSLGDQASISCRSSQNIVHRNGNTYLEWYLQKPGQSPKLLLYKVSNRFSGVPDRFSGSGSGTDFTLKISRVEAEDLGIYYCFQGSHFPFTFGSGTKLEIKR
B2: F4.13.7 human-murine chimeric antibody (antibody, human IgG1, kappa, V domains shown)
VH: QVQLQQPGAELVKPGASVKLSCKASGYTFTNNWVHWVKQRPGQGLEWTGMIHPDSGSTIYNEKFQSKATLTVDKSSSTAYMQLSSLTSEDSAVYYCARGYYDSSSYYAMDYWGQGTSVTVSS
VL: NIQMTQTTSSLSASLGDRVTISCSASQGIFNYLNWYQQKPDGTVKLLIYYTSSLHSGVPSRFSGSGSGTDYSLTISNLEPEDIATYYCQQYSKLPWTFGGGTKLEIKR
B3: F3.54.12 human-murine chimeric antibody (antibody, human IgG1, kappa, V domains shown)
VH: QVQLQQSGAELVRPGASVKLSCKASGYTFTDYEMHWVKQTPVHGLEWIGAIDPETGNTAYIQKFKGKATLTTDKSSSTAYMELRSLTSEDSAVYYCTRFYSYSHWGQGTTLTVSS
VL: DVVMTQTPLSLPVSLGDQASISCRSSQSLVHSNGNTYLHWYLQKPGQSPKLLIYKVSNRFSGVPDRFSGSSSGTDFTLKISRVEAEDLGVYFCSQNTHVPPTFGGGTKLEIKR
B4: F4.26.1 human-murine chimeric antibody (antibody, human IgG1, kappa, V domains shown)
VH: QVQLKQSGPGLVQPSQSLSITCTVSGFSLTSYGVHWVRQSPGKGLEWLGVIWSSGNTDYNAVLISRLSIKKDDSKSQVFFKMNSPQVDDSAIYYCGRNGGWLLRGFMDFWGQGTSVTVSS
VL: B3 VL with V30L, K44R, P45S, K50N, S70G, S71G, V90I, N96S, P101W
B5: F2.152.3 human-murine chimeric antibody (antibody, human IgG1, kappa, V domains shown)
VH: EVQLQQSGPELVKPGASVKMSCKASGYTFTDYYMTWVKQSHGKSLEWIGRVNPRNGDTTYNQKFEGRATLTLDKSLSTAFMQLNSLTSEDSAVYYCINSKGHFDYWGQGTTLTVSS
VL: DVLMTQTPLSLPVSLGDQASISCRSSQSIVHSNGNTYLEWFLQKPGQSPKSLIYKVSNRFSGVPDRFSGSGSGTDFTLKISRVEAEDLGVYYCFQGSHVPPTFGAGTKLELKR
B6: F3.38.7 human-murine chimeric antibody (antibody, human IgG1, kappa, V domains shown)
VH: QVQLQQSGAELVRPGASVKLSCKASGYTFTDYEIHWVKQTPVLGLEWIGAIDPKTGNTAYNQKFMGKATLTADKSSTTAYMDLRSLTSEDSAVYYCTRYFSFAYWGQGTLVTVSA
VL: B5 VL with S28T, I29F, E39Q, F41Y, S51L, P101Y, A105S, L111I
B7: F3.81.19 human-murine chimeric antibody (antibody, human IgG1, kappa, V domains shown)
VH: B3 VH with A50T, I61N, T72A, F99P, Y102L, S103T, H104Y, T110L, L111V, S115A
VL: B5 VL with M4L, I29F, N35D, E39Q, F41Y, S51L, P101Y, A105S, L111I
B8: F4.18.4 human-murine chimeric antibody (antibody, human IgG1, kappa, V domains shown)
VH: QVQLHQSGAEMAKPGASVNLSCKTSGFTFTDYGISWVKQRTRQGLEWIGDIYPRHINIYYNEKFKDKATLTADRSSSTAYMELRSMTSEDSAVYFCARRGTTGRGALDYWGQGTSLTVSS
VL: DILLTQSPAILSVSPGERVSFSCRASQSIGTSIHWYQQRTNGSPRLLIKYAFESISGIPSRFGGSGSRTDFTLTINSVESEDIADYYCQQTYNWPYTFGGGTKLEIKR
B9: hAb001H1L1 (antibody, human IgG1, V domains shown)
VH: EVQLVESGGGLVQPGGSLRLSCAASGFSFNTNAMNWVRQAPGKGLEWVGRIRSKSNNYATYYADSVKDRFTISRDDSKNSLYLQMNSLKTEDTAVYYCVRDGYYVLFAYWGQGTLVTVSS
VL: DIVMTQTPLSLPVTPGEPASISCRFSQSIVNSNGNTYLEWFLQKPGQSPQLLIYKVSNRFSGVPDRFSGSGSGTDFTLKISRVEAEDVGVYYCFQGSHVPFTFGQGTKLEIK
notes: Humanized F2.169.2; VH H1 + VL L1; expressed as human IgG1
B10: hAb001H1aL1b (antibody, human IgG1, V domains shown)
VH: B9 VH with D68G
VL: B9 VL with G34A
notes: Humanized F2.169.2; VH H1a + VL L1b; expressed as human IgG1
B11: hAb001H1L1b (antibody, human IgG1, V domains shown)
VH: B9 VH
VL: B9 VL with G34A
notes: Humanized F2.169.2; VH H1 + VL L1b; expressed as human IgG1
B12: hAb001H1aL1a (antibody, human IgG1, V domains shown)
VH: B9 VH with D68G
VL: B9 VL with N33D
notes: Humanized F2.169.2; VH H1a + VL L1a; expressed as human IgG1
B13: hAb001H2L1 (antibody, human IgG1, V domains shown)
VH: B9 VH with N79S
VL: B9 VL
notes: Humanized F2.169.2; VH H2 + VL L1; expressed as human IgG1
B14: hAb001H1aL1 (antibody, human IgG1, V domains shown)
VH: B9 VH with D68G
VL: B9 VL
notes: Humanized F2.169.2; VH H1a + VL L1; expressed as human IgG1
B15: hAb001H1L1a (antibody, human IgG1, V domains shown)
VH: B9 VH
VL: B9 VL with N33D
notes: Humanized F2.169.2; VH H1 + VL L1a; expressed as human IgG1

Target: T1, murine GPC3-his protein (Sino Biological, Cat. No. 50989-M08B) (murine, UniProt Q8CFZ4 25-558)
T1 construct: Bought protein; also called murine GPC3 protein
T1 sequence (Q8CFZ4 25-558 limits assumed): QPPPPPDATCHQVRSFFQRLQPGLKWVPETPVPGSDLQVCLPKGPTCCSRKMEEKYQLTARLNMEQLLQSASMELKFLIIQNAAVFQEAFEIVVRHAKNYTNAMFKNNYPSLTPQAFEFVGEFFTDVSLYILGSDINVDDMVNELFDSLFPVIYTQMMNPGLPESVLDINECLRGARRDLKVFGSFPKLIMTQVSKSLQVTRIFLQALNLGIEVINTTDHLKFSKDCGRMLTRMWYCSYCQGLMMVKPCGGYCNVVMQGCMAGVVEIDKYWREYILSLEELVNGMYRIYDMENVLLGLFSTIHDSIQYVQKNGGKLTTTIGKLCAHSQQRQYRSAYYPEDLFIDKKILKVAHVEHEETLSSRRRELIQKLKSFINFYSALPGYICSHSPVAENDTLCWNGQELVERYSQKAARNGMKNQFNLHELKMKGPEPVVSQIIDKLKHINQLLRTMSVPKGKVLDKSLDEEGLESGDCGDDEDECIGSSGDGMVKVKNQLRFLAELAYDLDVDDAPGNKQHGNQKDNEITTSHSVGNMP
Assay: ELISA, coated murine GPC3-His;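 note: antigen coated on plates at 1 µg/mL, test antibody bound for 2 h at 37 °C, detected with HRP-conjugated secondary antibody and TMB substrate after acid stop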

Binder | OD450 at 0.0001 nM antibody [OD450 nm] | OD450 at 0.001 nM antibody [OD450 nm] | OD450 at 0.01 nM antibody [OD450 nm] | OD450 at 0.1 nM antibody [OD450 nm] | OD450 at 1 nM antibody [OD450 nm] | OD450 at 10 nM antibody [OD450 nm] | OD450 at 100 nM antibody [OD450 nm]
B1 | 0.05 | 0.05 | 0.04 | 0.09 | 0.05 | 0.05 | 0.08
B2 | 0.06 | 0.11 | 0.54 | 2.12 | 2.86 | 2.88 | 2.87
B3 | 0.11 | 0.05 | 0.05 | 0.05 | 0.05 | 0.09 | 0.34
B4 | 0.06 | 0.07 | 0.11 | 0.57 | 0.98 | 1.29 | 0.68
B5 | 0.05 | 0.12 | 0.67 | 1.94 | 2.54 | 2.53 | 2.47
B6 | 0.06 | 0.06 | 0.05 | 0.04 | 0.05 | 0.06 | 0.12
B7 | 0.05 | 0.05 | 0.04 | 0.04 | 0.05 | 0.05 | 0.1
B8 | 0.18 | 0.15 | 0.1 | 0.1 | 0.14 | 0.16 | 0.13

Target: T2, human GPC3 on CHO-K1-human GPC3 cells (CHOK1-hGPC3.2B5) (human, UniProt P51654 25-554)
T2 construct: whole, on cells
Assay: FACS, CHOK1-hGPC3.2B5 cells;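 note: flow cytometry of humanized antibodies binding to the cells over one hour in the cold, read as cell mean fluorescence intensity, with EC50 obtained by curve fitting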

Binder | EC50 [pM] | Max MFI [MFI]
B9 | 313 | 3400
B10 | 325 | 3070
B11 | 399 | 3160
B12 | 1630 | 2530
B13 | 359 | 3550
B14 | 269 | 3270
B15 | 3660 | 2360

Target: biotinylated labeled human GPC3 protein (produced in-house) (human, UniProt P51654 25-559, limits assumed, biotinylated (Dojindo, Cat. No. LK03); sites not stated)
Assay: ELISA, biotinylated human GPC3 protein

Binder | OD450 at 0.0008 nM [OD450] | OD450 at 0.004 nM [OD450] | OD450 at 0.02 nM [OD450] | OD450 at 0.11 nM [OD450] | OD450 at 0.53 nM [OD450] | OD450 at 2.67 nM [OD450] | OD450 at 13.33 nM [OD450] | OD450 at 66.66 nM [OD450]
B9 | 0.162 | 0.341 | 0.926 | 2 | 2.64 | 2.67 | 2.72 | 2.74
B10 | 0.174 | 0.298 | 0.809 | 1.93 | 2.5 | 2.62 | 2.72 | 2.76
B13 | 0.169 | 0.324 | 0.895 | 1.97 | 2.5 | 2.6 | 2.58 | 2.6
B14 | 0.184 | 0.327 | 0.874 | 1.85 | 2.33 | 2.42 | 2.54 | 2.67
B15 | 0.114 | 0.157 | 0.477 | 1.43 | 2.39 | 2.5 | 2.6 | 2.63
